Data from patent publication US20190023810A1 (MIT, published 2019).

Legend:
HER3 [1] = biological target: T1, HER3 (UniProt P21860 20-643, limits assumed); assay: single antigen ELISA, HER3 coated, anti-human IgG HRP detection
Experimental: (§1) Briefly 96-well plates were coated overnight at […] with appropriate antigen. The plates were washed and blocked with 1% blotto (Santa Cruz Biotechnologies). Serial dilution of antibodies were added to the plate and incubated for 2 hours at room temperature. Antigen bound IgG was detected using RbαHu IgG HRP Conjugated secondary antibody (Jackson ImmunoResearch) followed by TMB substrate (KPL) addition.

PD1 = PD1 (UniProt Q15116 25-167, limits assumed); assay: sandwich (dual antigen) ELISA for PD1 and VEGF bound at once; the filing does not say which antigen is coated and which is detected
VEGF = VEGF (UniProt P15692-4 27-191, limits assumed); assay: as above
HER1 = biological target: T2, HER1 (UniProt P00533 25-645, limits assumed); assay: single antigen ELISA, antigen coated; printed as Kd′, from a 4 parametric fit
T2 construct: also called EGFR
Experimental: as §1

HER3 [2] = biological target: T1, HER3; assay: as above
Experimental: as §1

CD20 = biological target: T3, CD20 (UniProt P11836 1-297, limits assumed); assay: CD20 binding titration; legend and text call it an ELISA, but the y axis 'Mean APC-A Intensity' fits the flow cytometry cell-based binding assay on Raji cells
T3 sequence (looked up): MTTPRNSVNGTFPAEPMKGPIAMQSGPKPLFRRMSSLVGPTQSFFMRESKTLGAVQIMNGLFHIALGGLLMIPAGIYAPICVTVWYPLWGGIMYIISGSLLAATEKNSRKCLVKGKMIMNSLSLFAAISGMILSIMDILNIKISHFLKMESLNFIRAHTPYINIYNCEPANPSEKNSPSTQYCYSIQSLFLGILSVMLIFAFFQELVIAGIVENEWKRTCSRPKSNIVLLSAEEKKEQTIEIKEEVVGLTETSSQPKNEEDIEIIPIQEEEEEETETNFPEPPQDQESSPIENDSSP

Sequence of PD1 (Q15116 25-167 limits assumed): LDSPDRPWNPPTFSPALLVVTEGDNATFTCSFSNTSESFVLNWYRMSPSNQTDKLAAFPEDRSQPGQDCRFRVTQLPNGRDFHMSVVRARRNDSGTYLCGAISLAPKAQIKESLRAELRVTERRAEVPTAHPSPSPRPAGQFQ
Sequence of VEGF (P15692 other isoform, or with tags, fused parts or gaps limits assumed): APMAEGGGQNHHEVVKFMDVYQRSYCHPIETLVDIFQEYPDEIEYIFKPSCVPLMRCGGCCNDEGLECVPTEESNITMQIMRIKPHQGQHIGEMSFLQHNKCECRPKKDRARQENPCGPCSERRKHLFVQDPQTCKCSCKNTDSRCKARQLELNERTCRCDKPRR

B1: Pertuzumab WT (antibody, V domains shown)
VH: EVQLVESGGGLVQPGGSLRLSCAASGFTFTDYTMDWVRQAPGKGLEWVADVNPNSGGSIYNQRFKGRFTLSVDRSKNTLYLQMNSLRAEDTAVYYCARNLGPSFYFDYWGQGTLVTVSS
VL: DIQMTQSPSSLSASVGDRVTITCKASQDVSIGVAWYQQKPGKAPKLLIYSASYRYTGVPSRFSGSGSGTDFTLTISSLQPEDFATYYCQQYYIYPYTFGQGTKVEIKR
HER3 [1]
  binding result: no binding (tested: 1 (axis 'Ab Conc.', no unit printed))

B2: nivolumab/bevacizumab bispecific antibody (bispecific antibody, human IgG1, kappa)
light 1: not shown
heavy 1: not shown
light 2: DIQMTQSPSSLSASVGDRVTITCSASQDISNYLNWYQQKPGKAPKVLIYFTSSLHSGVPSRFSGSGSGTDFTLTISSLQPEDFATYYCQQYSTVPWTFGQGTKVEIKRTVAAPSVFIFPPSDEKLKSGTASVVCLLKNFYPREAKVQWKVDNALQSGNSQESVTEQDSKDSTYSLSSALTLSKADYEKHKVYACEVTHQGLSSPVTKSFNRGEC
heavy 2: not shown
notes: Human IgG1/kappa bispecific with four different chains; also called BsAb
PD1
  EC50 (read off the curve): ~0.2 µg/mL
VEGF
  EC50 (read off the curve): ~0.2 µg/mL

B3: pertuzumab/DL11 bispecific antibody (bispecific antibody, human IgG1, kappa)
light 1: DIQMTQSPSSLSASVGDRVTITCKASQDVSIGVAWYQQKPGKAPKLLIYSASYRYTGVPSRFSGSGSGTDFTLTISSLQPEDFATYYCQQYYIYPYTFGQGTKVEIKRTVAAPSVFIFPPSDEDLKSGTASVVCLLDNFYPREAKVQWKVDNALQSGNSQESVTEQDSKDSTYSLSSTLTLSKADYEKHKVYACEVTHQGLSSPVTKSFNRGEC
heavy 1: not shown
light 2: DIQMTQSPSSLSASVGDRVTITCRASQDLATDVAWYQQKPGKAPKLLIYSASFLYSGVPSRFSGSGSGTDFTLTISSLQPEDFATYYCQQSEPEPYTFGQGTKVEIKRTVAAPSVFIFPPSDEKLKSGTASVVCLLKNFYPREAKVQWKVDNALQSGNSQESVTEQDSKDSTYSLSSALTLSKADYEKHKVYACEVTHQGLSSPVTKSFNRGEC
heavy 2: not shown
notes: Human IgG1/kappa bispecific with four different chains; Expressed in Freestyle 293 cells and purified by protein A, gel filtration and the cation exchange main peak; also called P/D; P/D bi-specific
HER1
  Kd: 0.0898 nM
HER3 [2]
  Kd: 0.0898 nM

B4: DL11 WT (antibody, V domains shown)
VH: EVQLVESGGGLVQPGGSLRLSCAASGFTLSGDWIHWVRQAPGKGLEWLGEISAAGGYTDYADSVKGRFTISADTSKNTAYLQMNSLRAEDTAVYYCARESRVSFEAAMDYWGQGTLVTVSS
VL: DIQMTQSPSSLSASVGDRVTITCRASQDLATDVAWYQQKPGKAPKLLIYSASFLYSGVPSRFSGSGSGTDFTLTISSLQPEDFATYYCQQSEPEPYTFGQGTKVEIKR
notes: also called MEHD7945A
HER1
  Kd: 0.0415 nM

B5: rituximab/obinutuzumab bispecific antibody (bispecific antibody, human IgG1, kappa)
light 1: QIVLSQSPAILSASPGEKVTMTCRASSSVSYIHWFQQKPGSSPKPWIYATSNLASGVPVRFSGSGSGTSYSLTISRVEAEDAATYYCQQWTSNPPTFGGGTKLEIKRTVAAPSVFIFPPSDEDLKSGTASVVCLLDNFYPREAKVQWKVDNALQSGNSQESVTEQDSKDSTYSLSSTLTLSKADYEKHKVYACEVTHQGLSSPVTKSFNRGEC
heavy 1: not shown
light 2: DIVMTQTPLSLPVTPGEPASISCRSSKSLLHSNGITYLYWYLQKPGQSPQLLIYQMSNLVSGVPDRFSGSGSGTDFTLKISRVEAEDVGVYYCAQNLELPYTFGGGTKVEIKRTVAAPSVFIFPPSDEKLKSGTASVVCLLKNFYPREAKVQWKVDNALQSGNSQESVTEQDSKDSTYSLSSALTLSKADYEKHKVYACEVTHQGLSSPVTKSFNRGEC
heavy 2: not shown
notes: Human IgG1/kappa bispecific with four different chains; Both arms are anti-CD20; also called Rxm/Ga101; Rxm/GA101
CD20
  EC50 (read off the curve): ~2 µg/mL
